Experimental data taken from US20050124794A1, “Cell surface tropomyosin as a target of angiogenesis inhibition” (priority 2002, published 2005).

Experiments:
chicken gizzard Tpm [1] = molecular target: T1, chicken gizzard Tpm (Gallus gallus, UniProt P19352); experiment: Binding to immobilized Tpm in a 96 well plate (biotin-HKa competition or direct binding)
T1 construct: purchased Sigma; host or cells: chicken gizzard (tissue-derived, as the name says)
Protocol: Plates are coated at room temperature with chicken gizzard Tpm (Sigma) in Tris buffer-saline (TBS) (200 ng/well). After incubation for 2 hours, wells are washed with TBS, then 1% BSA/TBS/Tween-20 is added to each well and incubate at 37° C. for two hours. HKa (Enzyme Laboratories) that had been previously biotinylated with EZ-Link (Pierce) according to the manufacturers instructions, is added to the plate at a concentration of 10 nM together with ZnCl2 (10 μM) and the appropriate concentration of the protein, domain or peptide competitor. The plates are incubated at room temperature and then washed with TBS/Tween-20. Avidin-HRP is added, incubated for 20 minutes at room temperature, washed with TBS/Tween-20 and the chromogenic substrate is added. The reaction is stopped with sulfuric acid and the plate read at 490 nm.
The IC50 for the displacement of biotinylated-HKa for the peptides shown in Table 5 was determined as follows: 10 nM biotin-HKa is added to a 96 well plate previously coated with 200 ng of chicken gizzard Tpm in the presence of 10 μM ZnCl2. Increasing amounts of the peptides are added to the wells. The remaining biotin-HKa bound to Tpm was detected using avidin-HRP and a chromogenic substrate. A Kd was determined by non-linear regression analysis of the empirical data. The effect on the Matrigel Plug assay was determined as follows: Matrigel (0.5 mL) containing 400 ng/ml of bFGF, 50 μg/ml heparin with or without the peptide (300 μM) or saline buffer are injected in the flanks of a mouse. After five days, the plugs are removed and the plugs scanned.
The N-terminus of the pentapeptide HHPHG has been derivatized (capped) in an attempt to increase the pentapeptides' affinity to Tpm by increasing productive molecular contacts (or interactions). […] The IC50 for the displacement of biotinylated-HKa for the capped peptides shown in the table was determined as follows: 10 nM biotin-HKa was added to a 96 well plate previously coated with 200 ng of chicken gizzard Tpm in the presence of 10 μM ZnCl2. Increasing amounts of the peptides were added to the wells. The remaining biotin-HKa bound to Tpm was detected using avidin-HRP and a chromogenic substrate. A Kd was determined by non-linear regression analysis of the empirical data

hTm3 = hTm3 (Homo sapiens, UniProt P09493); settings: SPR, MacDonald et al. 2001; read-out: Kd of binding to immobilized hTm3; cited from earlier work
HUVEC = experiment: EC proliferation assay (growth factor-induced); type: cell-based, human; settings: bFGF 10 ng/ml; 20 nM HKa, 60 nM HKa domain 5
Protocol: EC proliferation assays. The effect of HKa on ECs in the absence or presence of mAb TM-311 was initially assessed using a proliferation assay, as described in Zhang et al., supra. Relative numbers of cells remaining in each well of a 96 well microplate after incubation for 48 hours in the absence or presence of HKa were determined using the Aqueous® cell proliferation assay (Promega, Madison, Wis.). Results are presented as the percent inhibition of bFGF-induced EC proliferation, which essentially reflects the extent of HKa-induced EC apoptosis. Though bFGF was used as the EC mitogen in most studies of the studies described herein, identical results were obtained using VEGF.

chicken gizzard Tpm [2] = molecular target: T1, chicken gizzard Tpm; experiment: Binding of HKa to purified Tpm immobilized in 96 well microplates; settings: for inhibition of binding of HKa to purified immobilized Tpm (in words): 20 nM biotin-HKa, 10 μM Zn2+
Protocol: To measure the binding of HKa to purified Tpm, 96 well microplates were coated with 20 μg/ml of chicken gizzard Tpm (Sigma), or bovine serum albumin (BSA), as a control. Wells were then blocked by incubation with phosphate buffered saline containing 5% nonfat milk, and incubated with increasing concentrations of HKa (0.01-20 nM) for 2 hours. Specifically-bound HKa was quantitated as described for cell binding assays (van Iwaarden et al., supra, and by assessing the ability of a 100-fold molar excess of unlabeled HKa to compete with biotin-HKa for binding.
In selected experiments, the ability of mAb TM-311 and recombinant HKa D5 to inhibit the binding of biotin-HKa to Tpm was assessed. These studies allowed determination of the Kd for binding of HKa D5 to Tpm using the equation: Kd (D5)=IC50/(1+[HKa]/Kd (HKa)) where IC50 is the concentration of HKa D5 that inhibited HKa binding by 50%, and Kd(HKa) is the Kd for binding of HKa to Tpm.

[3] = competition with 10 nM biotin-HKa
[4] = plate coated with 200 ng chicken gizzard Tpm, 10 μM ZnCl2

T1 sequence (P19352 1-284 isoform P19352-2): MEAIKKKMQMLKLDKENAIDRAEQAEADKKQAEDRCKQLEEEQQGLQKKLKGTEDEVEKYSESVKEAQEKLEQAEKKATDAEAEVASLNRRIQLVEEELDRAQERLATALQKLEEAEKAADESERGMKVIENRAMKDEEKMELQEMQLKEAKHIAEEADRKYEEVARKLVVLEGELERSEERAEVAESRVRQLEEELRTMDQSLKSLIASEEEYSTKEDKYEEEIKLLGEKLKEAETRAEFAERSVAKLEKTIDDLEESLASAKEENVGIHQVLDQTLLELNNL
T1 sequence (P04268 1-284 isoform P04268-2 F73S/I172L/T199L/N203E/L204A partner): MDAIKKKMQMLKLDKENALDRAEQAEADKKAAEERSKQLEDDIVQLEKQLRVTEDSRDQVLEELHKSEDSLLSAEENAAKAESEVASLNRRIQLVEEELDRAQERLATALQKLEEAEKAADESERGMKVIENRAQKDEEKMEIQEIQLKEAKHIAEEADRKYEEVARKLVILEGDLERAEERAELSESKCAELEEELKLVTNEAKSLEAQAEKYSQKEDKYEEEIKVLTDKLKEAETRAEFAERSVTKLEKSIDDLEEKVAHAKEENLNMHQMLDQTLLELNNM
Sequence of hTm3 (P09493 1-284 isoform P09493-3): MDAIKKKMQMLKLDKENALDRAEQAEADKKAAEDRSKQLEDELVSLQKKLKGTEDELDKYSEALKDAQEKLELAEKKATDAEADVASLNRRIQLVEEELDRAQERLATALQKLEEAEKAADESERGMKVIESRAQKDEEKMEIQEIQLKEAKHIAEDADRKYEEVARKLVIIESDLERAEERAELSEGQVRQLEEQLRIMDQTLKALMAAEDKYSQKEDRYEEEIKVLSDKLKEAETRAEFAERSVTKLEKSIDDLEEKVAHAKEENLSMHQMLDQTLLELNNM

B1: H/P domain: Histidine-Proline rich domain of HPRG, responsible for anti-angiogenic activity (protein)
chain: SVNIIHRPPPHGHHPHGPPPHGHHPHGPPPHGHPPHGPPPRHPPHGPPPHGHPPHGPPPHGHPPHGPPPHGHPPHGPPPHGHPPHGHGFHDHGPCDPPSHK
affinity for immobilized Tpm relative to endostatin (fold higher) (chicken gizzard Tpm [1]; [3]): approximately 1,000 fold | Kd (chicken gizzard Tpm [1]; [4]): ~2 nM

B2: rabbit HPRG: rabbit Histidine-Proline-Rich Glycoprotein, SEQ ID NO:22 (protein)
chain: LTPTDCKTTKPLAEKALDLINKWRRDGYLFQLLRVADAHLDGAESATVYYLVLDVKETDCSVLSRKHWEDCDPDLTKRPSLDVIGQCKVIATRYSDEYQTLRLNDFNCTTSSVSSALANTKDSPVLFDFIEDTEPFRKSADKALEVYKSESEAYASFRVDRVERVTRVKGGERTNYYVDFSVRNCSRSHFHRHPAFGFCRADLSFDVEASNLENPEDVIISCEVFNFEEHGNISGFRPHLGKTPLGTDGSRDHHHPHKPHKFGCPPPQEGEDFSEGPPLQGGTPPLSPPFRPRCRHRPFGTNETHRFPHHRISVNIIHRPPPHGHHPHGPPPHGHHPHGPPPHGHPPHGPPPRHPPHGPPPHGHPPHGPPPHGHPPHGPPPHGHPPHGPPPHGHPPHGHGFHDHGPCDPPSHKEGPQDLHQHAMGPPPKHPGKRGPGKGHFPFHWRRIGSVYQLPPLQKGEVLPLPEANFPQLLLRNHTHPLKPEIQPFPQVASERCPEEFNGEFAQLSKFFPSTFPK
binding to immobilized Tpm / displacement of biotin-HKa (in words) (chicken gizzard Tpm [1]; 10 nM biotin-HKa, 200 ng chicken gizzard Tpm, 10 μM ZnCl2): binds | Kd (chicken gizzard Tpm [1]; [4]): ~2 nM

B3: endostatin: Zn2+-binding, antiangiogenic polypeptide comprised of the NC domain of collagen XVIII (protein, UniProt P39060 1572-1754, looked up)
Endostatin: HSHRDFQPVLHLVALNSPLSGGMRGIRGADFQCFQQARAVGLAGTFRAFLSSRLQDLYSIVRRADRAAVPIVNLKDELLFPSWEALFSGSEGPLKPGARIFSFDGKDVLRHPTWPQKSVWHGSDPNGRRLTESYCETWRTEAPSATGQASSLLGGRLLGQSAASCHHAYIVLCIENSFMTASK
modifications: Endostatin
Kd (hTm3): ~100000 nM | Kd relative to that reported previously by SPR (fold better) (chicken gizzard Tpm [1]): 50 fold | affinity relative to HKa or HKa-D5 binding (fold lower) (chicken gizzard Tpm [1]): approximately 1,000 fold | Kd (chicken gizzard Tpm [1]; competition with 10 nM biotin-HKa, 10 μM ZnCl2): ~2000 nM

B4: HKa D5: Recombinant HKa domain 5, 125 residue D5 domain, SEQ ID NO:26 (protein, listed as Homo sapiens)
chain: VSPPHTSMAPAQDEERDSGKEQGHTRRHDWGHEKQRKHNLGHGHKHERDQGHGHQRGHGLGHGHEQQHGLGHGHKFKLDDDLEHQGGHVLDHGHKHKHGHGHGKHKNKGKKNGKHNGWKTEHLAS
inhibition of bFGF-induced EC proliferation (in words) (HUVEC): inhibition | inhibition of binding of HKa to purified immobilized Tpm (in words) (chicken gizzard Tpm [2]): blocked binding | inhibition of binding of HKa to purified immobilized Tpm (in words) (chicken gizzard Tpm [2]; listed as HKa domain 5): inhibits binding | Kd (chicken gizzard Tpm [2]; from IC50 of competition with biotin-HKa (equation of b366), read-out: estimated Kd of binding to Tpm): ~2.1 nM | affinity for immobilized Tpm relative to endostatin (fold higher) (chicken gizzard Tpm [1]; [3]): approximately 1,000 fold | Kd (chicken gizzard Tpm [1]; [4]): ~1 nM
